Numbering of substitutions follows the chain as printed. In names and notes the source's numbering stands.
Assays:
[1] = target: the molecule itself; test: crystal structure; TadA*8.20 (0.15 mM) with 0.22 mM 13-nt ssDNA containing d8Az; PEG 3,350, ammonium acetate, Tris pH 8.5, 20 °C
[2] = target: the molecule itself; test: crystal structure; TADAC-1.19 (0.3 mM) without ssDNA; PEG 3,350, ammonium citrate tribasic pH 7.0, 20 °C
[3] = target: the molecule itself; test: crystal structure; TADAC-1.17 (0.15 mM) with 0.22 mM 13-nt ssDNA containing d8Az; PEG 3,350, Tacsimate pH 6, 20 °C
[4] = target: the molecule itself; test: crystal structure; TADAC-1.14 (0.18 mM) without ssDNA; ammonium sulfate, HEPES pH 7.5, 20 °C

B1: TadA*8.20 (enzyme, E. coli)
chain: MSEVEFSHEYWMRHALTLAKRARDEREVPVGAVLVLNNRVIGEGWNRAIGLHDPTAHAEIMALRQGGLVMQNYRLYDATLYSTFEPCVMCAGAMIHSRIGRVVFGVRNAKTGAAGSLMDVLHHPGMNHRVEITEGILADECAALLCRFFRMPRRVFNAQKKAQSSTD
notes: E. coli tRNA adenosine deaminase TadA, laboratory-evolved variant TadA*8.20 of ABE8.20-m; 167 residues; Crystallised with a 13-nt ssDNA containing 2-deoxy-8-azanebularine; zinc enzyme; also called deaminase of ABE8.20-m; ABE8.20 TadA*; source: E. coli BL21 Star (DE3), purified (Ni-NTA, Ulp1 cleavage, reverse Ni-NTA, heparin, SEC); not shown: His, N-terminal, cleaved; SUMO, N-terminal, cleaved
stoichiometry N [1]: 2

B2: TADAC-1.19 (enzyme, E. coli)
chain: B1 chain with E27G, I49N
notes: E. coli TadA variant: TadA*8.20 with E27G and I49N relative to TadA*8.20; 167 residues; the rows below are written against wild-type TadA; Crystallised without ssDNA; also called TADAC-T1.19; source: E. coli BL21, purified as described for TadA*8.20; not shown: His, N-terminal, cleaved; SUMO, N-terminal, cleaved
stoichiometry N [2]: 2

B3: TADAC-1.17 (enzyme, E. coli)
chain: B1 chain with T17A, A48G, S82T, A142E
notes: E. coli TadA variant: TadA*8.20 with T17A, A48G, S82T and A142E relative to TadA*8.20; 167 residues; the rows below are written against wild-type TadA; Crystallised with a 13-nt ssDNA containing 2-deoxy-8-azanebularine; also called deaminase of CABE-T1.17; source: E. coli BL21, purified as described for TadA*8.20; not shown: His, N-terminal, cleaved; SUMO, N-terminal, cleaved
stoichiometry N [3]: 2

B4: TADAC-1.14 (enzyme, E. coli)
chain: B1 chain with S2H, I49K, Y76I, G112H
notes: E. coli TadA variant: TadA*8.20 with S2H, I49K, Y76I and G112H relative to TadA*8.20; Y76I brings position 76 back to the wild-type residue; 167 residues; the rows below are written against wild-type TadA; Crystallised without ssDNA; also called deaminase of CABE-T1.14; source: E. coli BL21 Star (DE3), purified (Ni-NTA, heparin, SEC; Ulp1 tag cleavage and reverse Ni-NTA omitted); not shown: …
stoichiometry N [4]: 2

— paper PMC10188367, “Improved cytosine base editors generated from TadA variants” (Nature Biotechnology, 2023)
